The text below walks through data of US12390491B2, “Compositions and methods for providing chemoprotective effects” (GTECH BIO LLC, priority 2020, dated 2025).

Holding throughout (type): cell-based
Data set [1] has as its system CEM cells. The data set is described as follows: GSH level by fluorometric assay, untransduced vs GCLM-transduced cells, pre- and post-busulfan exposure. The procedure: (§1) Jurkat, CEM, and Tf-1a cell lines were transduced with a lentiviral vector that expresses GCLM and green fluorescent protein (GFP) genes. Chemoprotection experiments were performed by incubating untransduced or mixed populations of (20% transduced, 80% untransduced) cells with busulfan in concentrations ranging from 0 to 200 μg/ml for 1, 2 or 4 hours. Cells were then incubated in busulfan-free culture for 24, 48, 72 and 96 h. Area under the concentration-time curve (AUC) was estimated by using trapezoidal rule from different times and concentrations of incubation. Pre- and post-exposure GSH levels were measured with fluorometric assays. Cell survival and proliferation at different time-points were measured by Nucleocounter NC-200 and flow cytometry using PI and 7-AAD staining protocols. The chemoselection of protected GFP+ cells were evaluated by flow cytometry. Baseline GSH levels and GCLM expression were also measured in primary human HSPCs harvested from 3 different donors with fluorometric and RT-PCR assays.
(§2) The Cells are incubated with busulfan (0, 1, 2, 4, 6, 8, 10, 20, 40, 60, 80, 100 and 200 μg/ml) in serum-free media (RPMI) for 1, 2 and 4 hours. The cells were then washed with ice-cold buffer (PBS+0.5% HSA+0.1% glucose). The washed cells were cultured in RPMI+20% FBS. 24, 48, 72, and 96 h time-point measurements were done.
(§3) Jurkat, CEM, and TF-1a cell lines were transduced with a lentiviral vector that expresses GCLM and green fluorescent protein (GFP) genes (FIG. 2A). Chemoprotection experiments were performed by incubating untransduced or mixed populations of (20% transduced, 80% untransduced) cells with busulfan in concentrations ranging from low (2 to 10 ug/ml) to moderate and high (10 to 200 ug/ml) for 1 or 2 hours. Cells were then incubated and viable cell counts were documented in busulfan-free culture for the 24, 48, 72 and 96-hr timepoints (FIG. 2B). Pre- and post-transduction, and post-exposure GSH levels were measured with fluorometric assays by FACS analysis. Cell survival and proliferation were measured daily by Nucleocounter NC-200 and flow cytometry using PI and 7-AAD staining protocols. The chemo selection of protected GFP-positive cells were evaluated by flow cytometry.

Data set [2] concerns CEM cells. Put plainly: Chemoprotection experiment: busulfan exposure, then viable cell count and proliferation in busulfan-free culture. Particulars: for expansion of viable transduced cells: CEM cells; for fold expansion in viable transduced cells: at 72 h. The procedure:
as §1, §2, §3

Data set [3] has as its system Jurkat, CEM and TF-1a cells. The data set is described as follows: Cell survival and proliferation (Nucleocounter NC-200, flow cytometry with PI and 7-AAD). The procedure: as §1, with “RT-PCR assays. […]” for “RT-PCR assays.”
(§4) Jurkat, CEM, and TF-1a cell lines were transduced with a lentiviral vector that expresses GCLM and green fluorescent protein (GFP) genes (FIG. 2A). […] Pre- and post-transduction, and post-exposure GSH levels were measured with fluorometric assays by FACS analysis. […] The chemo selection of protected GFP-positive cells were evaluated by flow cytometry.
In general terms: Flow cytometry measures light scatter and fluorescence of single cells or particles in a stream.

The subject of data set [4] is Jurkat cells. The data set is described as follows: GSH level by fluorometric assay, untransduced vs GCLM-transduced cells. Particulars: lentiviral GCLM/GFP transduction. The procedure: as §1, §4
Data set [5] concerns TF-1a cells. Described as above. Particulars: lentiviral GCLM/GFP transduction. The procedure:
as §1, §4

Data set [6] concerns CEM cells. The data set is described as follows: Chemoselection of protected GFP+ cells by flow cytometry in mixed populations (20% transduced, 80% untransduced). The procedure:
as §1, §2, §3

Turning to `CS(=O)(=O)OCCCCOS(C)(=O)=O` [busulfan, reference compound], the “GSH in untransduced cells after busulfan exposure” value in data set [1] (untransduced cells) is “depleted”. In addition, in data set [2] (untransduced CEM cells compared with Jurkat and TF-1a), the “sensitivity of untransduced cells to busulfan exposure” value was “most sensitive”. Further, the “survival of untransduced cells after busulfan” value in data set [2] (untransduced CEM cells, higher doses (10 and 20 μg/ml), by 96 hours) was “all dead”. Further, in data set [3] (all cell cultures, AUC estimated by trapezoidal rule), the “dependence of cell death and proliferation on busulfan exposure” value was “AUC-dependent”.

B1: GCLM: Heterologous human glutamate-cysteine ligase modifier subunit (SEQ ID NO: 1) overexpressed in cells via lentiviral vector co-expressing GFP (protein)
chain: MGTDSRAAKALLARARTLHLQTGNLLNWGRLRKKCPSTHSEELHDCIQKTLNEWSSQINPDLVREFPDVLECTVSHAVEKINPDEREEMKVSAKLFIVESNSSSSTRSAVDMACSVLGVAQLDSVIIASPPIEDGVNLSLEHLQPYWEELENLVQSKKIVAIGTSDLDKTQLEQLYQWAQVKPNSNQVNLASCCVMPPDLTAFAKQFDIQLLTHNDPKELLSEASFQEALQESIPDIQAHEWVPLWLLRYSVIVKSRGIIKSKGYILQAKRRGS
In the case of B1, the “GSH level change between untransduced and transduced cells” value in data set [4] is listed as 2.1 fold; in data set [5], 1.9 fold; in data set [1] (CEM cells, lentiviral GCLM/GFP transduction), 1.7 fold. The “GSH level in transduced cells relative to untransduced cells after busulfan” value in data set [1] (CEM cells, different dose and time, 24-hr post busulfan exposure) is recorded as “at least 3.5 fold”. Besides, the “GSH levels in transduced cells throughout the experiment” value in data set [1] (transduced cells, after busulfan exposure) is “remained stable”. The “expansion of viable transduced cells” value in data set [2] (10 μg/ml busulfan, by 96 hours) is listed as 5 fold; in data set [2] (20 μg/ml busulfan, by 96 hours) it was 3 fold. The “protection (proliferation rate) against busulfan” value in data set [2] (GCLM-transduced CEM cells, lower doses of busulfan) is given as “at least 3.5 fold”. Besides, the “fold expansion in viable transduced cells” value in data set [2] (busulfan-exposed transduced cells) stood at 2.8 fold; in data set [2] (untreated (no busulfan) transduced control) it was 3.2 fold. Also, in data set [3] (Jurkat, CEM and TF-1a cells, no busulfan), the “effect of GCLM overexpression on cell viability and proliferation” value is given as “no effect”. The “purity of transduced CEM cells” value in data set [6] (72 h of culture after 10 ug/ml busulfan for 1 h, starting from 20%) worked out at 88%. The transduced cell population was 100% in data set [6] (CEM cells, 10 or 20 μg/ml busulfan, 1-hr or 2-hr exposure, by 96 hours, from 20% initial) and 100% in data set [6] (moderate levels of busulfan exposure, in 72-96 h). Also, the “viable transduced cell count” value in data set [6] (CEM cells, 72 h of culture after 10 ug/ml busulfan for 1 h, starting from 30×10^3/ml) was found to be 84000 mL⁻¹. Also, the “transduced cells as share of the cultures” value in data set [6] (busulfan doses higher than 10 ug/ml or exposure longer than 1 h, after 72 h) turned out to be 100%.
